Assay [1] concerns the target T1, recombinant human FasR (Homo sapiens, UniProt P25445).
T1 construct: Fas receptor (FasR, CD95), human, recombinant; The FasR of the BLI and SPR experiments; Details are in Supplementary Protocols 8-10; also called recombinant FasR
In words: BLI; Octet Red384; recombinant human FasR; 1:1 Langmuir model; at least in duplicate; who was immobilised is not told (Supplementary Protocols 8-10). Background: In BLI a coated tip is dipped into the sample, and binding shifts an interference pattern.

Assay [2] deals with T2, FasR-Fc (Fc-fused Fas receptor) (Homo sapiens, UniProt P25445).
T2 construct: Fas receptor (FasR, CD95), human; also called Fas-Fc; CD95; source: bought: R&D Systems
T2 sequence (P25445 26-173): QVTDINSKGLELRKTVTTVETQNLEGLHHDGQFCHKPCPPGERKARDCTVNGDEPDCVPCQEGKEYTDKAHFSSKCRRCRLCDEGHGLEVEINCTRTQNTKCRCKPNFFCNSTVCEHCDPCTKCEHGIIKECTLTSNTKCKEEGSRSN
The assay can be described thus: on-bead binding assay read by flow cytometry (Bead Surface Display); SNAP-scFv-HA made by in vitro transcription/translation and held on streptavidin beads through BG-DNA anchors; beads incubated 1 h at room temperature with FasR-Fc (1 nM unless stated; 1, 10 and 30 nM in Fig. 2B), then with DyLight488-labelled goat anti-Fc; 1.5% marvel in PBS, washes with PBS and 0.05% Tween 20. To be noted: one partner purified.

Assay [3] has as its target T1, recombinant human FasR. In words: BLI; Octet Red384; recombinant human FasR; 1:1 Langmuir model; at least in duplicate; who was immobilised is not told (Supplementary Protocols 8-10). The settings on record: both partners purified.
In assay [4] the target is T2, FasR-Fc (Fc-fused Fas receptor). In words: on-bead equilibrium titration read by flow cytometry (Bead Surface Display); apparent; Fas-Fc titrated against beads displaying SNAP-scFv-HA; normalised median fluorescence fitted to a saturation binding curve. The settings on record: one partner purified. Background: In flow cytometry, cells or beads pass a laser one at a time.

Where a chain is given by its changes, count along the chain named. Names may count otherwise.

T1 sequence (P25445 26-335): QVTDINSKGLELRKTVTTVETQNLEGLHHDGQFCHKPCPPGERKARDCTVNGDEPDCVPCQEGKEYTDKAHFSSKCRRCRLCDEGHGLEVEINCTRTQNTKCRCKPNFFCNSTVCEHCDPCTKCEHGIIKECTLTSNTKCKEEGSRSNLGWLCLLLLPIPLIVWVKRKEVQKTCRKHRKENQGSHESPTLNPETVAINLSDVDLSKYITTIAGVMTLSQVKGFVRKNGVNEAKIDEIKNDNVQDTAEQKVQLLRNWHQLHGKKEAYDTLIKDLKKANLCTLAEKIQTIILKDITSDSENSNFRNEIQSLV

B1: A07a scFv (scFv, V domains shown)
VH: QLQLQESGPGLVKPSETLSLTCTVPGASISANSYYGVWVRQSPGKGLEWVGSIAYRGNSNSGSTYYNPSLKGRATVSVDTSKNQVSLRLTSVTAADTALYYCARRQLLDDGTGYQWAAFDNWDQGTMVTVSS
VL: QSVLTQPPSVSEAPRQTVTISCSGNSFNIGRYPVNWYQQLPGKAPKLLIYSNNLRFSGVSDRFSGSKSGTSASLAIRDLLSEDEADYYCSTWDDTLKGWVFGGGTKVTVL
A word on the koff: it is the first-order rate constant of dissociation. One may read the kon as a measure of how fast the partners come together. With B1, in the assay with recombinant human FasR [1], the Kd worked out at 0.4 nM, the koff amounted to 5.6e-05 s⁻¹ and the kon was 162000 M⁻¹ s⁻¹.

B2: SNAP-A09a scFv-HA (scFv, V domains shown)
VH: B1 VH with S7P, V12T, N32D, G72S, N121V, D123G
VL: B1 VL with S51H
notes: numbers count on: Kabat numbering; scFv linker, as in m6; On-bead form of m13; not shown: SNAP-tag, N-terminal, kept; HA, C-terminal, kept
Take B2: the “fold increase of MFS over E09” value in assay [2] is over 2 fold.

B3: R4aS scFv (scFv, V domains shown)
VH: B1 VH with G72S
VL: B1 VL with I29T, F56L, K97E
Turning to B3, in the assay with recombinant human FasR [1], the Kd turned out to be 0.38 nM, the koff amounted to 4.5e-05 s⁻¹ and the kon amounted to 117000 M⁻¹ s⁻¹.

B4: E09 scFv with the single mutation VL Y50S (scFv, V domains shown)
VH: B1 VH with P25S, G72S, N121V, D123G
VL: B1 VL
notes: VH: as the VH of m6 (E09); scFv linker, as in m6; numbers count on: Kabat numbering; Made by site-directed mutagenesis of E09 in pCantab6
Turning to B4, in the assay with recombinant human FasR [3], the “fold increase in affinity over the parent scFv E09 (Kd)” value came out at 4 fold.

B5: E09 scFv with the single mutation VH S25P (scFv, V domains shown)
VH: B1 VH with G72S, N121V, D123G
VL: B1 VL with S51Y
notes: numbers count on: Kabat numbering; scFv linker, as in m6; VL: as the VL of m6 (E09); Made by site-directed mutagenesis of E09 in pCantab6
Take B5: in the assay with recombinant human FasR [3], the “fold increase in affinity over the parent scFv E09 (Kd)” value came to 4 fold.

B6: SNAP-A07a scFv-HA (scFv, V domains shown)
VH: B1 VH
VL: B1 VL
notes: numbers count on: Kabat numbering; scFv linker, as in m6; On-bead form of m15; not shown: SNAP-tag, N-terminal, kept; HA, C-terminal, kept
As to B6, the “fold increase of MFS over E09” value in assay [2] is over 2 fold.

B7: SNAP-E09 scFv-HA (scFv, V domains shown)
VH: B1 VH with P25S, G72S, N121V, D123G
VL: B1 VL with S51Y
notes: VH: as the VH of m6 (E09); scFv linker, as in m6; VL: as the VL of m6 (E09); 47 kDa fusion; The parent vector pIVEX-SNAP-GFP holds the R30I mutant of the SNAP-tag; also called SNAP-scFv-HA; parent; source: in vitro translated (PURExpress), captured on BG-DNA-coated streptavidin beads; not shown: SNAP-tag, N-terminal, kept; HA, C-terminal, kept
B7: the “fold signal increase over the background (FasR at 1 nM)” value in assay [2] was over 1250 fold. The Kd in assay [4] is 4.3 ± 0.3 nM.

For the origin of these results see PMC5098251 (Scientific Reports, 2016).
